± gives the uncertainty stated by the source.
Assay: protein stability index of a GFP-peptide fusion (yeast GPS) (PSI 1-4); higher = more stable; sorted into four equal gates, so the index is relative within each strain
In short: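 Plasmids in a pooled yeast library fused tiled 17-residue yeast protein peptides downstream of GFP and also expressed Cherry. Mid-log cultures grown without leucine were sorted into four equal gates by GFP/Cherry fluorescence ratio. Each gate's plasmids were PCR-amplified and Illumina-sequenced, and reads were matched to strains by barcodes. The protein stability index is derived by multiplying each gate's read frequency by its gate number and summing the results.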

Row | Sequence | protein stability index (doa10∆) | protein stability index (pdr5∆) | protein stability index (san1∆) | protein stability index (ubr1∆)
1 | LNIGKNFAHSDSLSVPK [SIR4] | 3.17 ± 0.085 | 3 ± 0.075 | 3.12 ± 0.042 | 3.2 ± 0.05
2 | ANVVDITNDWEQPCVDI [YJR042W/NUP85] | 3.3 ± 0.071 | 3.41 ± 0.062 | 3.23 ± 0.051 | 3.12 ± 0.06
3 | LIKMSRSPPRPPSLKII [PRP28] | 2.16 ± 0.062 | 2.3 ± 0.068 | 2.3 ± 0.072 | 1.86 ± 0.052
4 | FSFGGTQTGQNTGPSTG [YGL172W/NUP49] | 3.59 ± 0.23 | 3.34 ± 0.17 | 3.18 ± 0.1 | 3.1 ± 0.11
5 | TVFLPMVGLVDPDKLKP [RPT5] | 2.77 ± 0.061 | 2.66 ± 0.079 | 2.47 ± 0.058 | 2.44 ± 0.062
6 | MSVEPVVVIDGKGHLVG [RPL16A] | 3.13 ± 0.15 | 3.42 ± 0.19 | 2.63 ± 0.11 | 3.1 ± 0.089
7 | CRELHNKHLTTLVEIFL [SSN3] | 1.59 ± 0.04 | 2.03 ± 0.045 | 1.82 ± 0.065 | 1.7 ± 0.04
8 | PMDAYLKLNHIIANINS [SNU114] | 1.26 ± 0.078 | 2.59 ± 0.085 | 1.97 ± 0.22 | 2.4 ± 0.097
9 | HFIQKLHTARKILVLTG [SIR2] | 1.74 ± 0.14 | 2.36 ± 0.16 | 1.1 ± 0.15 | 1.66 ± 0.21
10 | ARKHKLKTLVQGPRSYF [RPS27A] | 3.15 ± 0.14 | 3.34 ± 0.19 | 2.27 ± 0.14 | 2.72 ± 0.19
11 | NHITEFPSIPLPINGPI [RPC31] | 2.06 ± 0.05 | 2.24 ± 0.048 | 2.08 ± 0.07 | 1.94 ± 0.051
12 | TARINNRRLFKKCIDFF [RRI2] | 2 ± 0.082 | 2.18 ± 0.059 | 1.91 ± 0.11 | 2.18 ± 0.054
13 | KAGKVAVVVRGRYAGKK [RPL27A] | 2.19 ± 0.083 | 2.17 ± 0.053 | 2.19 ± 0.097 | 1.78 ± 0.086
14 | LICPQYGTENKDGEDII [CSL4] | 3.23 ± 0.15 | 3.41 ± 0.13 | 3.12 ± 0.14 | 3.28 ± 0.13
15 | VMNTKLLQEGGSLSGNS [ESC2] | 3.27 ± 0.14 | 3.44 ± 0.14 | 3.13 ± 0.099 | 3.07 ± 0.19
16 | VHNTNSFIISSLDTLEL [NUT1] | 2 ± 0.076 | 2.34 ± 0.067 | 1.99 ± 0.086 | 2.54 ± 0.07
17 | KAIFPNTVDGDLLKLVH [FAS1] | 2.19 ± 0.17 | 3.06 ± 0.14 | 2.22 ± 0.14 | 1.92 ± 0.05
18 | RINSTDEDLHEFQIEDA [SRB8] | 2.86 ± 0.14 | 2.87 ± 0.078 | 2.86 ± 0.12 | 3.22 ± 0.2
19 | REEAIGFIRGSNKFAEV [SMC3] | 3.01 ± 0.093 | 2.94 ± 0.074 | 2.95 ± 0.094 | 2.67 ± 0.08
20 | DIYMHDVNSASKSESDS [RRP4] | 3.59 ± 0.12 | 3.48 ± 0.1 | 3.15 ± 0.098 | 3.22 ± 0.066
21 | ARTAANSIYCPTQTVAE [RPN6] | 2.63 ± 0.062 | 1.76 ± 0.067 | 1.42 ± 0.11 | 2.04 ± 0.045
22 | TQPKAEATQDDDFDMLF [NUT1] | 2.73 ± 0.069 | 3.15 ± 0.051 | 2.99 ± 0.053 | 3.14 ± 0.043
23 | FLVEYEGQENNYNSTSR [SIR4] | 2.85 ± 0.093 | 2.76 ± 0.08 | 2.29 ± 0.1 | 3.24 ± 0.052
24 | ISTLQVKLYGREGSSAR [RPB2] | 2.71 ± 0.17 | 2.77 ± 0.1 | 2.77 ± 0.18 | 2.8 ± 0.086
25 | PIPIAVLDSYTPSTNEP [FAS1] | 2.78 ± 0.07 | 2.59 ± 0.063 | 2.69 ± 0.074 | 2.85 ± 0.041

Row | Sequence | protein stability index (doa10∆) | protein stability index (pdr5∆) | protein stability index (san1∆) | protein stability index (ubr1∆)
26 | VASQTVKKVIEINPFLL [PRE2] |  | 3.07 ± 0.17 | 2.44 ± 0.11 | 
27 | PDLPALEASYSKSYTPR [SMC4] | 2.28 ± 0.064 | 3.02 ± 0.088 | 2.75 ± 0.1 | 2.6 ± 0.071
28 | SGKSNTSNDASNKKETK [ITC1] | 3.14 ± 0.076 | 3.26 ± 0.073 | 3.29 ± 0.058 | 3.18 ± 0.06
29 | MSDVEEVVEVQEETVVE [RPS12] | 3.15 ± 0.1 | 3.36 ± 0.11 | 2.89 ± 0.084 | 3.12 ± 0.12
30 | RKIKRLEKFLQGRDTSK [SRP72] | 2.79 ± 0.1 | 2.16 ± 0.059 | 2.14 ± 0.12 | 2.76 ± 0.048
31 | PYFPGGSIAMARVLFDD [CYT1] | 2.29 ± 0.14 | 1.88 ± 0.1 | 2.61 ± 0.11 | 2.69 ± 0.093
32 | LFKNYRFNFISKYFIID [YMR129W/POM152] | 1.97 ± 0.068 | 1.41 ± 0.074 | 1.32 ± 0.1 | 1.42 ± 0.061
33 | SSDGALCMDSSYIGTII [POP1] | 3.09 ± 0.09 | 2.71 ± 0.083 | 3.04 ± 0.12 | 3.23 ± 0.14
34 | DDMVEYEDGTPATTSQM [CYT1] |  | 2.76 ± 0.14 | 3.02 ± 0.19 | 
35 | NYELEKIADNISKDENE [YDL116W/NUP84] | 3.03 ± 0.09 | 3.04 ± 0.077 | 2.98 ± 0.048 | 3.14 ± 0.055
36 | HDAPRGLFPFESYKPSV [SWI3] | 3.31 ± 0.091 | 3.08 ± 0.11 | 3.15 ± 0.11 | 3.1 ± 0.079
37 | PNEHPGAKYVIRDSGDR [RPO21] | 3.01 ± 0.084 | 3.1 ± 0.087 | 2.7 ± 0.15 | 3.03 ± 0.069
38 | RNNSKSVLLKKLGSVRV [SRP72] |  | 1.33 ± 0.11 |  | 1.69 ± 0.087
39 | YDPSIGIFGMDFYVVMN [RPL11A] | 2.26 ± 0.05 | 2.24 ± 0.052 | 2.31 ± 0.055 | 2.55 ± 0.037
40 | NTNNNNNPANNTNNNNS [SWI1] | 3.06 ± 0.033 | 3 ± 0.03 | 3.344 ± 0.026 | 3.435 ± 0.026
41 | LVDKRIDMLPMLLGTDL [DIS3] | 2.17 ± 0.083 | 2.54 ± 0.1 | 2.27 ± 0.08 | 2.34 ± 0.059
42 | LKSIESLKLENSDLEGK [SMC2] | 3.07 ± 0.13 | 2.8 ± 0.099 | 3.39 ± 0.17 | 2.99 ± 0.12
43 | PPKPRKVLQLLRLTRIN [RPL7A] | 1.95 ± 0.095 | 1.57 ± 0.077 | 1.7 ± 0.12 | 1.09 ± 0.061
44 | TEFSKNDLEVGVATKDK [SCL1] | 2.95 ± 0.079 | 3.03 ± 0.068 | 2.63 ± 0.088 | 2.71 ± 0.075
45 | RMAKLCARFLGNRGFSI [RPO31] | 2.35 ± 0.2 |  |  | 2.93 ± 0.2
46 | IDEIAYLFHNDRIIHTW [ECM29] | 1.4 ± 0.049 | 1.43 ± 0.054 | 1.3 ± 0.081 | 1.66 ± 0.043
47 | IASTLGPSAMRLSRCIR [RPC82] | 1.84 ± 0.089 | 2.46 ± 0.08 | 1.81 ± 0.083 | 2.4 ± 0.055
48 | NVIRSLEQEYRLILLLN [RMP1] | 1.44 ± 0.036 | 1.19 ± 0.022 | 1.29 ± 0.071 | 1.35 ± 0.038
49 | SSEILSYLSNSLDTSAS [YML103C/NUP188] | 2.96 ± 0.091 | 2.7 ± 0.069 | 2.25 ± 0.063 | 2.65 ± 0.055
50 | NKTSNNNNVTAVPAATP [SWI1] | 2.84 ± 0.044 | 3.06 ± 0.046 | 2.81 ± 0.032 | 3.07 ± 0.042
